Read-outs that look alike come from different tables or passages of the source.
Columns and labels:
Assay in all cases: ELISA, coated protein, antibody at 4 µg/mL
human Activin B protein [1] = biological target: T1, human Activin B protein (human, UniProt P09529 293-407)
T1 construct: Bought; Activin B is by nature a dimer of inhibin beta B chains
T1 sequence (looked up): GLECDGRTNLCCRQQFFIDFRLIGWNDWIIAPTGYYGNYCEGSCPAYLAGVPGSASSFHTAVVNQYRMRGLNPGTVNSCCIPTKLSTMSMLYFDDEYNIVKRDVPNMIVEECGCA

human BMP2 protein [2] = biological target: T2, human BMP2 protein (human, UniProt P12643 283-396)
T2 construct: Bought
T2 sequence (P12643 283-396 limits assumed): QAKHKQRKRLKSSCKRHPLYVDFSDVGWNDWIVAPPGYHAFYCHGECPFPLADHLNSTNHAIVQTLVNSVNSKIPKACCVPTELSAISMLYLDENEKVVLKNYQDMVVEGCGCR

human Activin A protein [3] = biological target: T3, human Activin A protein (human, UniProt P08476 311-426)
T3 construct: Bought; Activin A is by nature a dimer of inhibin beta A chains
T3 sequence (looked up): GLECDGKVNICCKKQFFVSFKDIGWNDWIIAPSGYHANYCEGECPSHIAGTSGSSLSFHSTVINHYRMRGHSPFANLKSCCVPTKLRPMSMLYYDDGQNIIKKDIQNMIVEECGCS

[4] = biological target: human AMH protein (human) (UniProt P03971)
[5] = biological target: human GDF8 protein (human) (UniProt O14793)
human Activin B protein [6] = biological target: T1, human Activin B protein; remark: listed apart in the source
human GDNF protein = biological target: T4, human GDNF protein (human, UniProt P39905 78-211)
T4 construct: Bought
T4 sequence (looked up): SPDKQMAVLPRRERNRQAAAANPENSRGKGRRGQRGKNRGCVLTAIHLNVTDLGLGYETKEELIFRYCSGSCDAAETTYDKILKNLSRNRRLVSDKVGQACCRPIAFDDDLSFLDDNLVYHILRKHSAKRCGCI

Human GDF15 protein = biological target: T5, Human GDF15 protein (human, UniProt Q99988 197-308)
T5 construct: Natural GDF15 is said to be a disulfide-linked homodimer; also called Human-GDF15-his
T5 sequence: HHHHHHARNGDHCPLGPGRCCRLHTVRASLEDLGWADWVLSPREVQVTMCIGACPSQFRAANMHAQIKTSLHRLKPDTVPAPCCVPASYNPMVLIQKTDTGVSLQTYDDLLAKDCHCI

human BMP2 protein [7] = biological target: T2, human BMP2 protein; remark: listed apart in the source
human TGFβ1 protein = biological target: T6, human TGFβ1 protein (human, UniProt P01137 279-390)
T6 construct: Bought
T6 sequence (P01137 279-390 limits assumed): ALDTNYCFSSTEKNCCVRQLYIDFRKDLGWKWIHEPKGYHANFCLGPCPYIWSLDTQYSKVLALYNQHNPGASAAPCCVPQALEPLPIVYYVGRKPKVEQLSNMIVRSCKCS

human GDF2 protein = biological target: T7, human GDF2 protein (human, UniProt Q9UK05 320-429)
T7 construct: Bought
T7 sequence (looked up): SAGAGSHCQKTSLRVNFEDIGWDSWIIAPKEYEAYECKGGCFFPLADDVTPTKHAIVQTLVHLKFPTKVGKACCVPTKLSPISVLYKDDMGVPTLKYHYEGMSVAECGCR

human GDF11 protein = biological target: T8, human GDF11 protein (human, UniProt O95390 299-407)
T8 construct: Bought
T8 sequence (looked up): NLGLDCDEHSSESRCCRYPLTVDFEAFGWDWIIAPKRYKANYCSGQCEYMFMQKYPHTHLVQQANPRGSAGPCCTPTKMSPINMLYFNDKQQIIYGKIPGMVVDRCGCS

human GDF1 protein = biological target: T9, human GDF1 protein (human, UniProt P27539 254-372, limits assumed)
T9 construct: Bought
T9 sequence (looked up): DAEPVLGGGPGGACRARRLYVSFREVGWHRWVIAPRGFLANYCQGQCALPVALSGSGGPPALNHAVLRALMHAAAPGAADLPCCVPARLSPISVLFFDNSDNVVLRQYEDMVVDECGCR

human GFRα1 protein = biological target: T10, human GFRα1 protein (human, UniProt P56159 25-429, limits assumed)
T10 construct: Bought
T10 sequence (looked up): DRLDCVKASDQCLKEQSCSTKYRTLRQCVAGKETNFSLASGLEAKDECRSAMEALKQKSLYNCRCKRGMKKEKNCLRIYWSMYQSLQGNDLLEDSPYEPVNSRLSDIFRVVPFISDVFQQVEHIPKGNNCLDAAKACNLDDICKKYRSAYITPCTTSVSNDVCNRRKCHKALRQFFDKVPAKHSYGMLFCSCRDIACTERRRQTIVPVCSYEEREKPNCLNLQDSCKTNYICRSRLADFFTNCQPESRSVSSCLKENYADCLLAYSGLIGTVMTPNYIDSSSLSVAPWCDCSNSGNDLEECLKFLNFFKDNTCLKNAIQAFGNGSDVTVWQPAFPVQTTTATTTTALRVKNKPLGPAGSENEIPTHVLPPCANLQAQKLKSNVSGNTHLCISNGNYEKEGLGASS

human GDF3 protein = biological target: T11, human GDF3 protein (human, UniProt Q9NR23 251-364, limits assumed)
T11 construct: Bought
T11 sequence (looked up): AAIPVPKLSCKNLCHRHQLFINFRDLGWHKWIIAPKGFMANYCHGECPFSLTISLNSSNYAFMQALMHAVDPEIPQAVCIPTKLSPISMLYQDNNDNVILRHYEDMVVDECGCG

human Activin A protein [8] = biological target: T3, human Activin A protein; remark: listed apart in the source
human BMP4 protein = biological target: T12, human BMP4 protein (human, UniProt P12644 293-408)
T12 construct: Bought
T12 sequence (looked up): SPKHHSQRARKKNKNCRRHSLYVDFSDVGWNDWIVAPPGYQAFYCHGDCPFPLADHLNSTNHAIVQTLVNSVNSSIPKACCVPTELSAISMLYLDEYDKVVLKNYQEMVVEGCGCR

Ponsegromab (antibody)
OD value (OD 450 nm-620 nm) (human Activin B protein [1]): 0.187
OD value (OD 450 nm-620 nm) (human BMP2 protein [2]): 0.265
OD value (OD 450 nm-620 nm) (human Activin A protein [3]): 0.0698
OD value (OD 450 nm-620 nm) [4]: 0.0754
OD value (OD 450 nm-620 nm) [5]: 0.0755
OD value (OD 450 nm-620 nm) (human Activin B protein [6]): 0.156
OD value (OD 450 nm-620 nm) (human GDNF protein): 1.21
OD value (OD 450 nm-620 nm) (Human GDF15 protein): 3.33
OD value (OD 450 nm-620 nm) (human BMP2 protein [7]): 0.227
OD value (OD 450 nm-620 nm) (human TGFβ1 protein): 0.129
OD value (OD 450 nm-620 nm) (human GDF2 protein): 0.555
OD value (OD 450 nm-620 nm) (human GDF11 protein): 0.0375
OD value (OD 450 nm-620 nm) (human GDF1 protein): 0.0818
OD value (OD 450 nm-620 nm) (human GFRα1 protein): 0.124
OD value (OD 450 nm-620 nm) (human GDF3 protein): 0.0676
OD value (OD 450 nm-620 nm) (human Activin A protein [8]): 0.0863
OD value (OD 450 nm-620 nm) (human BMP4 protein): 0.0639

Source: patent EP4818204A1 (Nanjing Leads Biolabs Co., Ltd., dated 2026)
